T1: hVEGFR-3 (Homo sapiens, UniProt P35916)
T1 construct: Ig (immunoglobulin fusion partner); made in house
T1 sequence (P35916 25-775 limits assumed): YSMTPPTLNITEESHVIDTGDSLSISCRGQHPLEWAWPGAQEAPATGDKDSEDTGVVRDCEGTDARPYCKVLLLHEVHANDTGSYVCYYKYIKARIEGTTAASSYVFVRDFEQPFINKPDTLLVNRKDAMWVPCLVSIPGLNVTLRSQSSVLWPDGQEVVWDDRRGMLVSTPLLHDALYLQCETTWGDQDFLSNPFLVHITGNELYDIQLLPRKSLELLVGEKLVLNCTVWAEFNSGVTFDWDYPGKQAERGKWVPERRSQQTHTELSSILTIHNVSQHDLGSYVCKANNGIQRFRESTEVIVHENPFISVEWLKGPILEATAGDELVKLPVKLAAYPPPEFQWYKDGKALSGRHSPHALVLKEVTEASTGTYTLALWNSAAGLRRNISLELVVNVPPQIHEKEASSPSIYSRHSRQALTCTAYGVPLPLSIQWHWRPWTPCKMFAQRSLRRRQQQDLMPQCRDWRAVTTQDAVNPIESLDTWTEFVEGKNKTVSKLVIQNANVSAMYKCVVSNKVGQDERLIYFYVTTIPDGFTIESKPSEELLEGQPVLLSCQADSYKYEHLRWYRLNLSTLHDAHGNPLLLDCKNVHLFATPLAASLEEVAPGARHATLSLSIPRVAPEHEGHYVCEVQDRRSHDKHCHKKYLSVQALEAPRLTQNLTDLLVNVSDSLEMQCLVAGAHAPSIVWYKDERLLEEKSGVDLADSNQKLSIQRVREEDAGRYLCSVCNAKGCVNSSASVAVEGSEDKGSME

B1: VEGF-C156S: VEGFR-3 specific mutant form of VEGF-C, cysteine 156 changed into serine; recombinant human (Thr103 to Ile225) (protein, UniProt P49767 103-225, looked up, variant C156S)
chain: TEETIKFAAAHYNTEILKSIDNEWRKTQCMPREVCIDVGKEFGVATNTFFKPPSVSVYRCGGCCNSEGLQCMNTSTSYLSKTLFEITVPLSQGPKPVTISFANHTSCRCMSKLDVYRQVHSII

Assays:
CREB = CREB Ser133 phosphorylation in HMVE cells, Western blot; format: cell-based, human; conditions: HMVECs
Protocol: Western blot analysis. Endothelial cells were cultured on 35 mm dishes to near confluence, starved for 24 h in serum free medium and stimulated as indicated. Wortmannin ([…]), LY294002 ([…]), PD98059 (10-25 μM) or GF109203X (2.5-5 μM) were added 1-3 h before stimulation, where indicated. DMSO, into which the inhibitors were dissolved, was used as a control. After the stimulation, the cells were lysed in lysis buffer (50 mM HEPES, pH 7.5, 150 mM NaCl, 10 mM EDTA, 100 mM NaF, 1% TritonX-100 supplemented with 2 mM Na3VO4, 0.5 mM PMSF, 100 U/ml approtinin and 10 μg/ml leupeptin). Clarified lysates were separated by SDS-PAGE, transferred to nitrocellulose and immunoblotted using the phosphospecific antibodies for Akt-Ser473, Akt-Thr308, p42/44 MAPK-Thr202/Tyr204 or CREB-Ser133. The bound antibodies were detected using horseradish peroxidase conjugated secondary antibodies and enhanced chemiluminescence detection system. The blots were stripped and reprobed with antibodies against Akt, MAPK or CREB for quantification by reading the optical densities of the signals with Multi-Analyst 2.0.1 program (Bio-Rad).
The p42/p44 MAPK activation was detected by Western blotting using phospho-Thr202/Tyr204-MAPK specific antibodies and CREB phosphorylation using phospho-Ser133 specific antibodies. The growth factor concentrations used were: VEGF 10 ng/ml, VEGF-C 100 ng/ml and VEGF-C156S 500 ng/ml. […] Effects of inhibition of protein kinase C by GF109203X, MEK1 by PD98059 and PI-3 kinase by LY294002 on p42/p44 MAPK Thr202/Tyr204 phosphorylation, CREB Ser133 phosphorylation and Akt Ser473 phosphorylation in HMVE cells. The growth factor concentrations used were: VEGF 1 ng/ml, VEGF-C 10 ng/ml and VEGF-C156S 500 ng/ml

hVEGFR-2 = molecular target: T2, hVEGFR-2 (Homo sapiens, UniProt P35968); experiment: Biosensor (BIAcore) analysis of ligand binding to immobilized VEGFR-2; conditions: hVEGFR-2 bivalent immunoglobulin fusion protein immobilized; global fitting, 1:1 Langmuirian model with mass transfer
T2 construct: Receptor domains were coupled to the carboxymethylated dextran layer of a CM5 sensor chip
Protocol: (§1) Biosensor Analysis. All preparations were analysed for homogeneity and buffer exchanged by micropreparative size exclusion HPLC using a Superose 12 (3.2/30) column installed in a SMART system (Amersham Pharmacia Biotech, Uppsala, Sweden) immediately prior to use (Nice and Catimel, Bioessays, 21:339-352, 1999). The concentrations of VEGF-C and VEGF-D were determined by absorbance at 280 nm using E280 1% 1 cm of 0-65. Receptor domains were coupled to the carboxymethylated dextran layer of a CM5 sensor chip using standard amine coupling chemistry (Nice and Catimel, Bioessays, 21:339-352, 1999) for analysis of ligad binding using a BIAcore 2000 optical biosensor (BIAcore, Uppsala, Sweden). The levels immobilized were 3,000 RU and 7,000 RU for VEGFR-2 and VEGFR-3, respectively. Following immobilization, residual activated ester groups were blocked by treatment with 1 M ethanolamine hydrochloride pH 8.5 followed by washing with 10 mM diethylamine to remove non-covalently bound material. 10 mM diethylamine or 10 mM HCl was used to regenerate the sensor surface between analyses for VEGF-D or VEGF-C binding, respectively. Samples were diluted in running buffer (10 mM HEPES pH 7.4, 150 mM NaCl, 3.4 mM EDTA, 0.005% Tween 20). The apparent binding affinities of VEGF-C and VEGF-C156S to receptor domains were determined by analysis of the initial dissociation phase to obtain the kd, which was then used to constrain a global analysis of the association region of the curves, assuming a 1:1 Langmuirian model. Data were analysed using BLAevaluation 3.0 (BIAcore, Uppsala, Sweden) as described previously (Catimel et al., J. Chromatogr., 776:15-30, 1997).
Biosensor analysis was used to further investigate the interactions of VEGF-C and VEGF-C156S with VEGFR-2 and VEGFR-3. Analysis of the biosensor binding curves confirmed that VEGF-C156S binds only to the extracellular domain of VEGFR-3, whereas wild type VEGF-C bound to both VEGFR-2 and VEGFR-3 receptors (FIG. 1D-FIG. 1G). […] However, in both assays the affinity of VEGF-C was higher towards VEGFR-3 than towards VEGFR-2.

hVEGFR-3 = molecular target: T1, hVEGFR-3; experiment: Biosensor (BIAcore) analysis of ligand binding to immobilized VEGFR-3; conditions: hVEGFR-3 bivalent immunoglobulin fusion protein immobilized; global fitting, 1:1 Langmuirian model with mass transfer
Protocol: as §1, with “Following immobilization, residual activated ester groups were blocked by treatment with 1 M ethanolamine hydrochloride pH 8.5 followed by washing with 10 mM diethylamine to remove non-covalently bound material. 10 mM diethylamine or 10 mM HCl was used to regenerate the sensor surface between analyses for VEGF-D or VEGF-C binding, respectively. Samples were diluted in running buffer (10 mM HEPES pH 7.4, 150 mM NaCl, 3.4 mM EDTA, 0.005% Tween 20).” left out, “1997). […]” for “1997).”

T2 sequence (P35968 20-764 limits assumed): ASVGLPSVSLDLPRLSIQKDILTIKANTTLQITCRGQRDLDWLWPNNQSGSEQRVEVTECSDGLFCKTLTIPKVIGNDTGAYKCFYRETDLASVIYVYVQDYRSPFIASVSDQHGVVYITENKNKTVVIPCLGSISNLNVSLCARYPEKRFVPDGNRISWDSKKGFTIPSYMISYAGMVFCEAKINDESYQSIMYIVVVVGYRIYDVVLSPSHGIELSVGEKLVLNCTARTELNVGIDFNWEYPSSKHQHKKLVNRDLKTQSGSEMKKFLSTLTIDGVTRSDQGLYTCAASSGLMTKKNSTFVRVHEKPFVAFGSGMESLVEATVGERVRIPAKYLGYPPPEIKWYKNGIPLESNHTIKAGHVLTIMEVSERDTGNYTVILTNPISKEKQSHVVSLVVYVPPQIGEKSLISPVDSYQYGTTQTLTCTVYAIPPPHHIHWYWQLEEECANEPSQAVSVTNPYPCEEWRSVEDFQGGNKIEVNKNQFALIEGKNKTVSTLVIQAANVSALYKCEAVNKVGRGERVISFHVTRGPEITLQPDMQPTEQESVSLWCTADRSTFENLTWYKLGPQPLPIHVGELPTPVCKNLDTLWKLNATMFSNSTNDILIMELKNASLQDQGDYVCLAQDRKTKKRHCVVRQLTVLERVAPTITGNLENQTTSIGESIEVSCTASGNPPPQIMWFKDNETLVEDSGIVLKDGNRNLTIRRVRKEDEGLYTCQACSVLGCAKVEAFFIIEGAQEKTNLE

| Molecule | CREB phosphorylation on growth factor stimulation (CREB) | KD (hVEGFR-2) | Ka (hVEGFR-2) | Kd (hVEGFR-2) | Ka (hVEGFR-3) |
| --- | --- | --- | --- | --- | --- |
| VEGF | detected | – | – | – | – |
| B1 | – | no binding | no binding | no binding | 3500 M⁻¹ s⁻¹ |

Source: patent publication US20080317723A1, “LYMPHATIC ENDOTHELIAL CELLS MATERIALS AND METHODS” (VEGENICS LIMITED, priority 2001, published 2008)
